The values below come from IntAct's records for PubMed 17599067.

B1: Inhibitor of nuclear factor kappa-B kinase subunit epsilon (Homo sapiens), Q14164 (parent)
chain: MQSTANYLWHTDDLLGQGATASVYKARNKKSGELVAVKVFNTTSYLRPREVQVREFEVLRKLNHQNIVKLFAVEETGGSRQKVLVMEYCSSGSLLSVLESPENAFGLPEDEFLVVLRCVVAGMNHLRENGIVHRDIKPGNIMRLVGEEGQSIYKLTDFGAARELDDDEKFVSVYGTEEYLHPDMYERAVLRKPQQKAFGVTVDLWSIGVTLYHAATGSLPFIPFGGPRRNKEIMYRITTEKPAGAIAGAQRRENGPLEWSYTLPITCQLSLGLQSQLVPILANILEVEQAKCWGFDQFFAETSDILQRVVVHVFSLSQAVLHHIYIHAHNTIAIFQEAVHKQTSVAPRHQEYLFEGHLCVLEPSVSAQHIAHTTASSPLTLFSTAIPKGLAFRDPALDVPKFVPKVDLQADYNTAKGVLGAGYQALRLARALLDGQELMFRGLHWVMEVLQATCRRTLEVARTSLLYLSSSLGTERFSSVAGTPEIQELKAAAELRSRLRTLAEVLSRCSQNITETQESLSSLNRELVKSRDQVHEDRSIQQIQCCLDKMNFIYKQFKKSRMRPGLGYNEEQIHKLDKVNFSHLAKRLLQVFQEECVQKYQASLVTHGKRMRVVHETRNHLRLVGCSVAACNTEAQGVQESLSKLLEELSHQLLQDRAKGAQASPPPIAPYPSPTRKDLLLHMQELCEGMKLLASDLLDNNRIIERLNRVPAPPDV
partner: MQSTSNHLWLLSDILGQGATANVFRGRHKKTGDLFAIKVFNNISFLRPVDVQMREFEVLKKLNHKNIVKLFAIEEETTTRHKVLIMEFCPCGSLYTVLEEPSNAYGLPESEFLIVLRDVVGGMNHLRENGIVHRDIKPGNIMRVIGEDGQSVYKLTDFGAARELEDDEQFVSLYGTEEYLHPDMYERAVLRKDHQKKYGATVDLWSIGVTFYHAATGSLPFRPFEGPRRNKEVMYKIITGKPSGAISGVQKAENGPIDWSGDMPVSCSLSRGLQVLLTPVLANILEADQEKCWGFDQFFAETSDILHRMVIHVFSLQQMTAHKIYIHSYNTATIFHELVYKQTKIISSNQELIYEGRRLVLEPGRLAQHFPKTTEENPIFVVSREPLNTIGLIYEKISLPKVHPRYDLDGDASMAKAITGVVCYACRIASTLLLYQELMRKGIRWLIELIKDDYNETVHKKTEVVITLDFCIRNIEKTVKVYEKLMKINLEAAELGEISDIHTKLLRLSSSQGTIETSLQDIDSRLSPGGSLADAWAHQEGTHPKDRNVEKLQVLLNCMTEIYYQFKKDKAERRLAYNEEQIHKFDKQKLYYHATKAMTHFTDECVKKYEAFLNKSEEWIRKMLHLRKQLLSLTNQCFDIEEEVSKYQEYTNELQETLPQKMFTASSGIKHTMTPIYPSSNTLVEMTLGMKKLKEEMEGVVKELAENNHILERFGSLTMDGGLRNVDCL
B2: Serine/threonine-protein kinase TBK1 (Homo sapiens), Q9UHD2 (parent)
chain: B1 partner
partner: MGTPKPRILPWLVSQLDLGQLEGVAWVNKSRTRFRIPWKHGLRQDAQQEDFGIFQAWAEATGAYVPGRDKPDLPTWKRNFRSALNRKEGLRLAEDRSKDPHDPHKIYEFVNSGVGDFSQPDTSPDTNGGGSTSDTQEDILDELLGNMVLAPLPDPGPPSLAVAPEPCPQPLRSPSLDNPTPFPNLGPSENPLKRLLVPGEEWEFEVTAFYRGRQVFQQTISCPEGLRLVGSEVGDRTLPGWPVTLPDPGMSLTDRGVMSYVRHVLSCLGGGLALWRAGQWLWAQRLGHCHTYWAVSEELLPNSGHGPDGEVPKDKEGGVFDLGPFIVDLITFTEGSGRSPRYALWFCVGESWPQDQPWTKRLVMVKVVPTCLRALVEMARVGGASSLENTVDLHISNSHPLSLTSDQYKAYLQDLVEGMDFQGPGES

Variants of B1 are the subject of one assay. Particulars: with tbk1_human TBK1, Q9UHD2.
With F354A, the “effect of a mutation on the interaction” value is “increasing interaction”.
Same read-out and setting: next, L353A: “increasing interaction”.

The next assay covers variants of B2. Particulars: with irf3_human IRF3, Q14653.
As to I353A, the “effect of a mutation on the interaction” value is listed as “disrupting interaction”.
For L352A, the “effect of a mutation on the interaction” value is “disrupting interaction”.
